This data set in a line: yeast display, Sf9 membrane polyspecificity reagent, FACS + sequencing; frameworks hold sequencing errors. The gist of the method: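 Using colony PCR, genes from sorted yeast display clones were amplified, then sequenced on MiSeq at 2 × 250 and filtered by CDR length. The clones had been stained with 10% biotinylated, detergent-solubilized Sf9 membrane reagent for 1 hour at 4 °C and sorted by FACS into low and high (top ~1%) gates on anti-HA and streptavidin fluorescence. Polyreactivity labels come from the gate of origin.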
Turning to “QVQLVESGGGLVQAGGSLRLSCAASVITFWIYAMGWYRQAPGKERELVAAITGRGGSTYYADSVKGRFTISRDNAKNTVYLQLNSLKPEDTAFYYCAAESWYSTYDYWGQGTQVTVTS”, the “polyreactivity (PSR sort gate)” value is reported as “high polyreactivity”. “QVQLVESGGGLVQAGGSLRLSCAASGYTFLVNAMGWYRQAPGKERELVAAISSGGSTYYADSVKGRFTISRDNAKNTVYLQMNSLKPEDTAVYYCAAPTDFLFWEFDYWGQGTQVTVSS”: the “polyreactivity (PSR sort gate)” value was “low polyreactivity”. The entry for “QVQLVESGGGLVQAGGSLRLSCAASGSTFSQNAMGWYRQAPGKERELVAVISSSGGRTNYADSVKGRFTISRDNAKNTVYLQMNSLKPEDTSVYYCAKRLRVLYYYWGQGTQVTVSS” is “high polyreactivity”; for “QVQLVESGGGLVQAGGSLRLSCAASGFILYFNAMGWYRQAPGKERELVAAITSDGGSTYYADSVKGRFTISRDNAKNTVYLQMNSLKPEDTAVYYCAADASTWYTEEYWGQGTQVTVSS” it is “low polyreactivity”. With “QVQLVESGGGLVQAGGSLRLSCAASGSTFSVYAMGWYRQAPGKERELVADITRGGSTYADSVKGRFTISRDNAKNTVYLQMNSLKPEDTAVYYCAREEVTPYPLYWSTREYDYWGQGTQVTVSS”, the “polyreactivity (PSR sort gate)” value is recorded as “low polyreactivity”. Regarding “QVQLLESGGGLVQAGGSLRLSCAASGFTFYLYTMGWYRQATGKERELVAAISRSGDRTYYADSVKGRFTISRDNAKNNVYLQMNSLKPEDTAVYYCAARSYRPTRGDYWGQGTQVTVST”, the “polyreactivity (PSR sort gate)” value is “high polyreactivity”.

For “QVQLVESCGGLVQAGSSLRLSCAASVITFYGYAMGWYRQAPGKERELVADITRGGSTNYADSVKGRFTISRDNAKNTVFLQMNSLKPEDSAVYYCAKSTRRFSWYYSTVGYNYWAQGTQVTVSS”, the “polyreactivity (PSR sort gate)” value is on record as “high polyreactivity”. The entry for “QVQLVESGGGLVQAGGSLRLSCAASGRIFGYIAMGWYRPAPGKERELVAAISWSGGSTYYADSVKGRFTISRDNAKNTVYLQMNSLKPEDTAVYYCAADSQDGYFYWGQGTQVTVSS” is “low polyreactivity”.

With “QVQLVESGGGLVQAGGSLRLSCAASGSIFVNYAMGWYRQAPGKERELVAAISRSGGRTYYADSVKGRFTISRDNAKNTVYLQMNSLKPEDTAVYDCNVYPVLRTIEGDYWGQGTQVTVSS”, the “polyreactivity (PSR sort gate)” value is “high polyreactivity”. As to “QEQLEESGGGLVQAGGSLRLSCAASGFTLGRYAMGWYIQAPGKERELVAAINSSGGRTYYADSVNGRFTISRDTAKNTVYLQLNSLKPEDTAVYYCATVNVRGPPYDFWGQGTQVTVSS”, the “polyreactivity (PSR sort gate)” value is reported as “high polyreactivity”. To “QVQLVESGGGLVQAGGSLRLSCAASGRTFVYYAMGWYRQAPGKERELVAAITSGGNTYYADSVKGRFTISRDNAKNTDYLQMNSLKPEDTAVYYCAAKRRRSFDYWGQGTQVTVSS” belongs “high polyreactivity”; to “QVQLVESGGGLVQAGGSLRLSCAASGFIFTIYAMGWYRQAPGKERELVAAISSGGSTTYADSVKGRFTISRDNAKNTVYLQMNSLKPEDTAVYYCNAGVDPFGSLLPFTDQYDYWGQGTQVTVSS”, “low polyreactivity”.

Turning to “QVQLVESGGGLVQAGGSLRLSCAASGSTFRYNAMGWYRQAPGKEREMVATITWSGGSTYYADSVKGRFTISRDNAKNTVYLQMNSLKPEDTAVYYCAKLPFPVYYGGSYKYYYWGLGTQVTVSS”, the “polyreactivity (PSR sort gate)” value was “high polyreactivity”. The entry for “QVQLVESGGRLVQAGGSLRLSCAASGIIFKGYDMGWYRQEHGKVRELVAGITWIVGSTYADSVKGRFTISRDNAKNTVYLQMNSLKPEDTAVYYCNADPELTGYRFLCAEGVEYWGEGTQVTVSS” is “low polyreactivity”; for “QVQLVESGGGLVQAGGSLRISCAASGSTFYRNAMGWYRQAPGKEREFVAAISFRGGGTYADSVKGRFTISRDNAKNTVYLQMNSLKPEDTAVYYCAADHLSYRRRYEYWGQGTQVTVSS” it is “low polyreactivity”; for “QVQLVESGGGLVQAGGSLRLSCAASGIIFKGYDMGWYRQAPGKERELVAAISSGSTNYADSVKGRFTISRDNAKNTVYLQMNSLKPEDTAVYYCNKDSISYTWGYDYWGQGTQVTVSS” it is “low polyreactivity”.

As for “QVKLVESGGGLVQAGGSLRLSCAASGSTFFIYTKGLYRQAPGKEREFVAAISWTGGRTYYADSVKGRFTISRDNAKNTVYLQMNSLKPEDTAVYYCAARYKYSSYDYWGQGTQVTVSS”, the “polyreactivity (PSR sort gate)” value is recorded as “high polyreactivity”. Consider “QVQLVESGGGLVQAGGSLRLSCAASGIIFADYAMGWYIQAPGKERELVAAISTSGGSTYYADSVKGRFTISRDNAKNPVYLQMNSLKPEDTAVYYCNAVYYTSYSGYQFVYEYDYWGQGTQVTVSS”, for which the “polyreactivity (PSR sort gate)” value is on record as “low polyreactivity”. The entry for “QVQLVETGRGLVQAGGSLRLSSAASGFTFGPYDMGWYIQAPGKERELVATIRSGDSTKYADSVKGRFTISRDNAKNTVYLQMNSLKPEDSAGYYCARDARASARRKRDDYWGQGTQVTVSS” is “low polyreactivity”. In the case of “QVQLVESGGGLVQAGGSLRLSCAASGSSFAENAMGWSRQAPGKERELVATIRSGGSTYADSVKGRFTISRDNAKKTVNLQMNILKPEDTAVYYCATDRYPHSATPGDYWGQGTQVTVSS”, the “polyreactivity (PSR sort gate)” value is listed as “low polyreactivity”. To “QVQLVESGVGLVQAGGSLRLSCAASGRIFERYAMGWYRQAPGKERELVAAIRSGGSTKYADSVKGRFTISRGNAKNTVYLQMNSLKPEDTAVYYCAAVIHYGDGYWGQGTQVTVSS” belongs “low polyreactivity”.

Take “QVQLVESGGGLVQAGGSLRLSCAASGFTFSLYAMGWYRQAPGKERELVARISDSGGGTYYADSVKGRFTISRDNAKNTVYLQMNSLKPEDTAVYYCAAVSVWYVTSTSYRYWRYDYWGQGTQVTVSS”: the “polyreactivity (PSR sort gate)” value is recorded as “high polyreactivity”. To “QDQLEESGGGLVQAGGSLRLSSADSGRIFYSYAMGWYRQAPGKERELVAAINSGDRTNYADSVKGRFTISRDNAKNTVYLQMNSLKPEDTAVYYCATRWFAFPWDEYNYWGQGTQGTVSS” belongs “low polyreactivity”; to “QVQLVESGGGLVQAGGSLRLSCAASGRIFPKYAMGWYSQAPGKERELVAGITKRVGSTYYADSVKGRFTISRDNAKNTVYLQMNSLKPDDTAVYYCAADYRYLIDYLDPEKEGMDYWGQGTQVTVSS”, “low polyreactivity”. To “QVQLVESGGGLVQAGGSLRLSCAASGIIFDGYVMGWYRQAPGNERELVAAISRSGGRTFYADSVKGRFTISRDNAKNTVYLQMNSLKPEATAVYYCAARRVRTRGYNYWGQGTQVTVSS” belongs “high polyreactivity”; to “QVQLVESGGGLVQAGGSLRLSCAASGSTFVSNAMGWYRQAPGKERELVAAISTSGGSTYYADSVKGRFTISRDNAKNTVYLQMNSLKPEDTAVYYCAKLLARGFRIWQDYDYWGQGTEVTVSS”, “low polyreactivity”.

As for “QVQLVESGGGLVQAGGSLRLSCAASGRTSSSNAMGWYRQAPGKERELVATISRTGSTYYADSVKGRFTISRDNAKNTVYLQMNSLKPEDTAVYYCNRYFSEALLHGSSYNRYYYWGQGTQVTVSS”, the “polyreactivity (PSR sort gate)” value was “low polyreactivity”. The entry for “QVQRVESGGGLVQAGGRLRLSFAAAGIIFKVNAMGWYRQAPGKERELVPAISWSGSSTYYADSVKGRFTISRDNAKNTVYLQMNSLKPEDTAVYYCGTRWFAVHMYWGQGTQVTVSS” is “high polyreactivity”. As to “QVQLVESGGGLVQAGGSLRLSCAASGFTFLPAYAMGWYRQAPGKERELVAAITRGGSTYYADSVKGRFTISRDNAKNTVYLQMNSLKPEDTAVYYCNADQKFGFYRSVGDDYWGQGTQVTVSS”, the “polyreactivity (PSR sort gate)” value was “low polyreactivity”. The entry for “QVQLVESGGGLVQAGGSLRLSCAASGSTFSSNAMGWYRQAPGKEREFVAGISRSGGSTYYADSVKGRFTISRDNAKNTVYLQMNSLKPEDTAVYYCAARGGPGFKFGYWGQGTQVTVSS” is “high polyreactivity”; for “QVQLVESGGGLVQAGGSLRLSCDASGSTFVGNSMGWYRPAPGKERELVAALTQSGGNTFYADSVKGRFTISRDYAKNTVYLQINSLKPEDTAVYYCAATVSNGVKLDGPARVDLDYWGQGTQVTVSS” it is “low polyreactivity”. The entry for “QVQLVESGGGLVQAGGSLRLSCAASGSTIYLYAMGWSRPAPGKERVLVAAIRGRGGRTYYADSVKGRFTISSDNAKNTVYLKMNSLKPEDTAVYYCNADVYAYYRATTRFDYWGQGTQVTVSS” is “high polyreactivity”; for “QVQLVESGGGLVQAGGSLRLSCAASGRTDAYYAMGWYRQAPGKERELVAAITRGGSTYYADSVKGRFTISRDNAKNTVYLQMNSLKPEDTAVYYCAAATSPYQDDYWGQGTQVTVSS” it is “low polyreactivity”; for “HVQLQESGGGLVQAGGSLRLSCAASGNISYSRNMGWYRQAPGKERELVAAIDRGAITYYADSVKGRFTISRDNAKNTVYLQIYSLKPEDTAVYYCAAEDHDRWDHLYWGQGTQVTVSS” it is “high polyreactivity”. As to “QVQLVESGGGLGQAGGSLRLSCAASGIIFLDNAMGWYRQAPGKERELVAAYADSVKGRFTISRDNSNNTVYLQMNSLKPEDTAVYYCNVVLYKYSPTDSWITYDYWGQGTQVTVSS”, the “polyreactivity (PSR sort gate)” value is given as “low polyreactivity”. Consider “QVQLVESGGGLVQAGGSLRLSCAASGLIFKTYAIGWYRLAPGNERELVAAISWSGGGNTYYADSVKGRFTISRDNAKNTVYLQMNSLKPEDTAVYYCNAPRFVSYDYWGQGTQVTVSS”, for which the “polyreactivity (PSR sort gate)” value is “high polyreactivity”.

With “QVQLVESGGGLVQAGGSHRLSCAASGSTFVLYALGWYRQAPGKERELVAVISWSGGSTYYADSVKGRFTISRDNAKNTVYLQMNSLKPEDTAVYYCAATGWSSFYYRFDYWGQGTQVTVSS”, the “polyreactivity (PSR sort gate)” value is listed as “low polyreactivity”. To “QVQLVESGGGLVQAGGSLRLSCAASGFTFYTNTMGWYRQAPGKERELVAAISSGGSTYYADSVKGRFTISLDNAKNTVYLKMNSLKPEVTAVYYCAVYGPWAYYPMGYWGQGTQVTVSS” belongs “low polyreactivity”.

For “QVQLVESGGGLVQAGGSLRLSCAASGFTFPENAMGWYRQAPGKERELVAAISYRGASTFYADSVKGRFTISRDNAKNTVYLQMNSLKPEDTAVYYCATDPRIRYQGNPYDYWGQGTKVTVSS”, the “polyreactivity (PSR sort gate)” value is “high polyreactivity”. To “QVQLVESGGGLVQAGGSLRLSCAASGFTITQYGMGWYRQAPGKERELVADITYSGGDTYYADSVKGRFTISRDNAKNTVYLQMNSLKPEDTAVYFCAAYSWKYCFVWGYVYWGQGTQVTVSS” belongs “high polyreactivity”; to “QVQLVESGGGLDQAGGSLRLSCAASGSIFVLYAMGWYRQAPGKERELVAAITRSGGDTYYADSVKGRFTISRDNAKNTVYLQMNSLKPEDTAVYYCAAERSWYPWVATGYYWGQGTQVTVSS”, “low polyreactivity”.

(Values after the nanobody polyreactivity screen of Harvey et al. (2022).)
